According to the nanobody polyreactivity screen of Harvey et al. (2022):

Test: yeast display, Sf9 membrane polyspecificity reagent, FACS + sequencing; frameworks hold sequencing errors
In short: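 Nanobodies came from a synthetic yeast display library in Saccharomyces cerevisiae BJ5465, induced with galactose for 36–48 hours and stained for 1 hour at 4 °C with 10% biotinylated, detergent-solubilized Sf9 membrane reagent. Cells were enriched on streptavidin microbeads and then FACS-sorted, with low and high (top ~1%) gates set on anti-HA fluorescence for expression and streptavidin fluorescence for reagent binding. Each polyreactivity label reflects the gate a clone came from. Genes were amplified by colony PCR, sequenced by MiSeq 2 × 250 and filtered by CDR length.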

Sequence	polyreactivity (PSR sort gate)
QFQLVESGGGLVQAGGSLRLSCDASGSIFSYYAMGWYRQAPGKERELVAAISQSGGTTYYADSLKGRFTISRDNEKNTVYLQMNSLKPEDTAVYYCAARAQSSFDTQYYYWGQGTQVTVSS	low polyreactivity
QFQLVESGGGLVQAGGSLRLSCSASGSIFVSNAMGRSRQAPGKERELVAAISSSGDSTYYADSVKGRFTISRDNAKNTFYVQMNSLKPEDNAVYYCAAVGPWWFPEYDYWGQGTQVTVSS	low polyreactivity
QFQLVESGGGLVQAGVSLRLSCAASGRIFSLYAMGWYRQAPGKERELVAAISYSGGSTYADSVKGRFTFSRDNAKNTVFLQMNSLKPEDTAVYYCAAEEYLAYAQFDYWGQGTQVTVSS	low polyreactivity
QFQLVESGGGLVQAGVSLRLSCAASGSIIKYYAMGWYRQAPGKERELVATINWNGGSTYYADSVKGRFTISRDNAKNTVYLQMNSLKPEDTAVYYCAAGYRGSYYHSHYEYLGQGTQVTVSS	high polyreactivity
QFQLVESGGGVVQAPGSLRLSSAASGSLFTVYAMGWYRQAPGKERELVAAISYGGGSTYYADSVKGRFTISRDTAKNTVYLQMNSLKQEDTAVYYCAADPYYSYGYYHAHGRDVGYWGQGTQVTVSS	low polyreactivity
QFQLVESGRGLVQAGGSLRLSCAASGSTILYYAMGWYRQAPGTERELVAAISSSDGSTYYADSVKGRFTISRDNAKYTVYLQMNSLKPEDTAVYYCNADFYWGYNYWGQGTQVTVSS	high polyreactivity
QFQLVESVGGLVQAGGSLRLSCAASGRTFVDYDMGCYRPAPGKERELVAAIRRGGSTTYEDSVKGRFTISRDNAKNTVYLQMNSLKPEDTAVYYCATDNTYGSDYWGQGTQVTVSW	high polyreactivity
QFQLVESVGGLVQAGGSLRLSLASSGSIFGPNTMGWYRQAPGKERELVAAIRGGGSTNYADSVKGRFTISRDNAKNTVYLQMNSLKPEDTAVYYCNATWNLFPGFLDRYDYWGQGTQVTVSS	low polyreactivity
QFQLVETVGGLVQAGGSLRLSCAASGFTYKSYAMGWYCQAPVKERELVASISRRGGSTYYADSVKGRFTISRDNAKNNVYLQMNSLKPEDTAVYYCNKYFRYRGDYDYWGQGTQVTVSS	high polyreactivity
QGHLDESGGGIVQAGGSLRLSCAASGITVVTYAMGWYRQAPGKERELVAAISRSGGRTYYADSVKGRFTISRDNAKNTVYLLMNSLKPEDTAVYYCAAERKNKYDYWGQGTQVTVSS	high polyreactivity
QGHREESGGGLVQAGGSLRLSCAASGSTFGIYALGWYIQEQGKERELVAAITWSGSSTYYADSVKGRFTISRDNAKNNVYLQINSLKPEDTAVYYCAAEDTLYEYYYWGQGTQVTVSS	high polyreactivity
QGKLVESGGGLVQAGGSLRLTCPASGSIFRLNTMGWYRQAPGKEREFVAAISKGGTSTYYADSVKGRFTISRDNAKNTVYLQLTSLIPEDTAVYYCARKRYPSAPFQYDYWGQGTQVTVSS	high polyreactivity
QGQLEESGGGLFQAGGSLRLSCAASGRIFLYNGMGWYRQAPGKERELVAGITTGGNTNYADSVKGRFTISRDNAKNTVYLQMNSLKPEDTAVYYCAAEVIVYGWSPDYDYWGQGTQVTVSS	low polyreactivity
QGQLGESGGGLVQAGGSLRLSCAASGIIFTWYVMGWYRQAPGKERELVAAISASGASTYYADSVKGRFTISRDNAKNTVYLQMHSLNPEDPAVNYCNRYPTDGRTSYVTYYYWGQGTQVTVSS	high polyreactivity
QGQLGEYGGGLVQAGGSLRLSCAAYGRTVYYYAMGWYRQEPGKDREFVAGITATGSSTYYADSVKGRFTISRDNAKNTVYLQMNSLKPEDTAVYFCAADRYTTYSGQWSYPYDYWGQGTQVTVSS	low polyreactivity
QGQLQESGGGLVQAAGSLRMSCAASGTIFSEANMGWYRQAPGQVRELVATIGQGSTTNYADSVKGRFTISRDNAKNTVYLQMISLKPEETGVYYCAVVTVDPVGFVYWGQGTQVTVSS	low polyreactivity
QGQLVESAGGLGQAGGSLRLSCAASGRTLGRYVMGWYRQGPGQVRELVAAISARTGSTYYADSVKGRFTISRDNAKNTVYLQMNSLKPEDTAVYYCATKFSSYDTRVSYDYWGQGTQVTVSS	low polyreactivity
QGQLVESAGGLVQAAGSLRLSCAASGITFHYYAMGWYRQAPGKERELVAAIDGSDTDTYYADSVKGRFTISRDNAKNTVYLQMNSLKQEDTAVYYCAAEYTYAALARNDDYWGQCTQVTVSS	high polyreactivity
QGQLVESAGGLVQAGGSLRLSCAASGSTFDYYTIGWYRQAPGKERELVAAISSSGGSTYYADSVKGRFTISRANAKNTVYLQMNSLKPVDTAVYYCAAKWDWGYGRGFQYGFNYWGQGTQVTVSS	low polyreactivity
QGQLVESCGGLVQAGGSLLLSCAASGRIFRSYAMGGYRPAPGKERELVASMSTGGSTNYADSVKGRFTFSRDTAKNSGYLQKNRLKPEDTAVYYCAAGPYYKYWGQRYNYWGQGTQVTVSS	high polyreactivity
QGQLVESGGALVQAGGTLRLSCAASGIIFSGNGMGWYRQAPGNVRELVAAITAGAGTNYADSVKGRFTISRDNAKNSVYLQMHSLKPEDPGVYYCAVDGRSVPAWWPRFDYWGQGTQVTVSS	low polyreactivity
QGQLVESGGCLVQAGGSLRLSCAASGIIFWSYAMGWYRQAPGKERELVAAISRRGGSTSYADSVKGRFTISRDNAKTTVYLQMNSLKPEDTAVYYCAADRYFNPKSYSTEFDYWGQGTQVTVSS	high polyreactivity

Sequence	polyreactivity (PSR sort gate)
QGQLVESGGGFVQAGGSLRLSCDASGNIFSANAMGWYRQAPWKEREFVAAISSTGGSTYYADSVKGRFTISRDNEMNTLYLQMNCLKPEDTAVYYCAAYIRRYFHYDYWRQGTQVTVSS	high polyreactivity
QGQLVESGGGIVQAGGSLRLSCAASGFNFWQYAMGLYRQAPGKERELVAAITSSGTSTYYADSVKGLFTISRDNAKNTVYLQMNSLKPEDTAVYSCAADLGYYDLYYWGQGTQVTVSS	low polyreactivity
QGQLVESGGGLDQAGVSLRLSCAASGFIFSFDNAMGWYRQAPGTERELVAAISSGTTTHYADSVKGRFTISRDNAKNTVYLQMNSLKPEDSAVYDCAADSVKQVRYGNVGHDDWGQGTQVTVSS	low polyreactivity
QGQLVESGGGLVHAGGRLRLSCAASGSTFTTYAMGWYRQAPGTERELVAAISTNGGRTFYADSVKGRFTISRDNAKTTFYLQMNSLKTEDTAVYYCAAQYGLYAPGYYYWGHGTQVTVSS	low polyreactivity
QGQLVESGGGLVQAGGRLRLSCAASGYNFGSYAMGWYRQAPGKERELVAAISGGGSTNYADSVKGRFTISRDNAKNTVYLQMHSLKPEDTAVYYCAAYPYLYPLRFEEYDHWGQGTQVTVSS	low polyreactivity
QGQLVESGGGLVQAGGSIRLSCAASGSTTFYAMGWYRQAPGKEWELVATISSSAGSTYYADSVKGRFTISRDNAKNTVYLQMNSLKPEDTAFYYCAKAAYGNSYTSDYWGQGTQVTVSS	low polyreactivity
QGQLVESGGGLVQAGGSLRLSCAASARTYGNYAMGRYREAPGKERELVADITRRGGSTSYADSVKGRFTISRDNAKNTVYLQMNSLKPEDTAVYYCNKRTTPYYSQGITRIEYDYWGQGTQVTVSS	low polyreactivity
QGQLVESGGGLVQAGGSLRLSCAASGFIFFSNAMGWYRQEPGKERELVAAISRIGVSTYYADSVKGRFTISRDNAKNTVYLQLNSLKPEDTAVYYCAADLSDYWRGDSWGQGTLVTVSS	low polyreactivity
QGQLVESGGGLVQAGGSLRLSCAASGFIFSSNAMGLYRHAPGKERELVAAISSSGGNTYYADSVKGRFTISRDNAKKTVDLQMNSLKPEDTAVYYCAADLSSAYGHDYWGLGTQVTVSS	low polyreactivity
QGQLVESGGGLVQAGGSLRLSCAASGFTFGHYAMGWYRQAPGKERELVAAIRWSGGSTYYADSVKGRFTISRDNAKNTVYLQMNSLKPEDTAVYYCAARGFDGYEYDYWGQGTQVTVSS	low polyreactivity
QGQLVESGGGLVQAGGSLRLSCAASGFTFWYYAKGWSRQAPRKEREMVAVINTSGASTYADSVKGRFTISRDNAKITVDLQMNSLKPEDTAVYYCAAEGIATYPYDYWGHGTQVTVSS	low polyreactivity
QGQLVESGGGLVQAGGSLRLSCAASGISFSFYAMGWYRQAPGKERELVADITLSGGRTYYADSVKGRFTISRDNAKNTVYLQMNSLKPEDTAVYYCNADTYERVDYWGQGTQVTVSS	high polyreactivity
QGQLVESGGGLVQAGGSLRLSCAASGITFYYYAMGWYRQAPGKERELVAAINWSGTSTYYADSVKGRFTISRDNAKNTVYLQMNSLKPEDTAVYYCNAERGRSFWWAYDYWGQGTQVTVSS	low polyreactivity
QGQLVESGGGLVQAGGSLRLSCAASGLIFYKYAMGWYRQAPGKERELVAVISWSGGSTYYADSVKGRFTISRDNAKNTVYLQMNRLKPEDTAVYYCAADTSYYRIRGWFGRVDYGYWGQGTQVTVSS	high polyreactivity
QGQLVESGGGLVQAGGSLRLSCAASGRIFEFNARGWYRQAPGKERELVAANSRSGGSTYYADSVKGRFTISRDKAKNTVYLQMNTQKPEHTAVYYCNAVYHYYPLYYWKYGYWGQGTQVTVSS	low polyreactivity
QGQLVESGGGLVQAGGSLRLSCAASGRIFGHYAMGWYRQAPGKERELVAAISQSGTNTYYADSVKGRFTISRDNAKNTVYLQMNSLKPEDTAVYYCAAKPPRRYQLMDYWGQGTQVTVSS	high polyreactivity
QGQLVESGGGLVQAGGSLRLSCAASGRIFYAYAMGWYRQAPGKERELGAAITSSGGRTYYADSVKGRFTISRDTAKNTVYLQLNSLKPEDTAVYYCAAYDYWGQGTQVTVSS	low polyreactivity
QGQLVESGGGLVQAGGSLRLSCAASGRIFYGNVMGWYRQAPGKERELVADISYDGGSTYYADSVKGRFTISRDNAKNTVYLQMNSLKPEDTAVYYCNKREVFIYGTTYDYWGQGTQVTVSS	low polyreactivity
QGQLVESGGGLVQAGGSLRLSCAASGRNFRINDMGWYRQAPGKERELVAAITWSGGSTYYADSVKGRCPISRDNAKNTVYLQMHSLKPEDTAVYYCAADQAYFWGYYYWGQGTQVTVSS	low polyreactivity
QGQLVESGGGLVQAGGSLRLSCAASGRTFKYNVMGWYRQAPGKERELVAAISSGGGTNYADSVKGRFTISRDNAKNTVDLQMNSLKPEDTAVYYCAAKYAWRLLEMYYWGQGTQVTVSS	low polyreactivity
QGQLVESGGGLVQAGGSLRLSCAASGRTFYRYAMGWYRQAPGKERELVAAITRRGDSTSYADSVKGRFTISRDNAKNTVYLQMNSLKPEDTAVYYCATLVQGSVYGLYGGGYWGQGTQVTVSS	low polyreactivity
